Assay [1] addresses T1, APRIL (full length cDNA clone without Flag tag) expressed on transfected COS 7 cells (human, UniProt O75888 105-250).
T1 construct: also called APRIL-transfected COS 7 cells
T1 sequence: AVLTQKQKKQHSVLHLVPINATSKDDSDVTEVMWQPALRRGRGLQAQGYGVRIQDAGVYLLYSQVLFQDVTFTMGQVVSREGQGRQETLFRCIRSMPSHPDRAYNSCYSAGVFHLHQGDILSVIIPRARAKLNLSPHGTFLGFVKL
Nature of the assay: receptor-Fc staining of transfected COS 7 cells, biotinylated anti-human antibody and Cy3-streptavidin. The protocol: Transfected COS 7 cells were subsequently incubated with TACI.ECD.hFC immunoadhesin, hBr3-hFc, or mBR3-hFc (prepared as described above). Cells were incubated with the TACI ECD-IgG (or a TNFR1-IgG construct prepared as described in Ashkenazi et al., Proc. Natl. Acad. Sci., 88:10535-10539 (1991)) at 1 μg/ml for 1 hour in PBS. Cells were subsequently washed three times with PBS and fixed with 4% paraformaldehyde in PBS. Cell staining was visualized by incubation with biotinylated goat anti-human antibody (Jackson Labs, at 1:200 dilution) followed by Cy3-streptavidin (Jackson Labs, at 1:200 dilution). Murine BR3-Fc, like hBR3-hFc, also only bound TALL-1-transfected but not APRIL-transfected COS 7 cells (data not shown). […] In contrast, TACI-hFc fusion protein bound cells transfected with either TALL-1 or APRIL (FIG. 10).

In assay [2] the target is T2, TACIs expressed on transfected COS 7 cells (human, UniProt O14836 1-292).
T2 sequence: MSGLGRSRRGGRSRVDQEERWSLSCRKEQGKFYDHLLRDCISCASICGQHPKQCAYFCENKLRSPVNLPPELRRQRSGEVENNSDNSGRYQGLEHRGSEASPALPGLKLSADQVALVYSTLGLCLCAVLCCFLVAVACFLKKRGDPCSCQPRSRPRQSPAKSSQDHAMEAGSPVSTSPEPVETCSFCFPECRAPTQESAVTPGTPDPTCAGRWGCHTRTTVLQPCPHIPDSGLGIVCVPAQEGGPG
Nature of the assay: AP-APRIL staining of transfected cells, in situ AP activity.

The target of assay [3] is T3, human TACI (265 amino acid form) expressed on transfected COS 7 cells (human, UniProt O14836 1-258).
T3 construct: also called hTACI (265)
T3 sequence: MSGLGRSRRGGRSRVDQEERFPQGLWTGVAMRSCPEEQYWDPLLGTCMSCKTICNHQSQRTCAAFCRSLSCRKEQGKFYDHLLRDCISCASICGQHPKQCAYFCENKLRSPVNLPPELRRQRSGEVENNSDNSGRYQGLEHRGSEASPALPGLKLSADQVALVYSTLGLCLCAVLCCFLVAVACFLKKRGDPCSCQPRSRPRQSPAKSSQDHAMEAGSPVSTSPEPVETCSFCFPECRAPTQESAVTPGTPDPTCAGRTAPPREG
The assay can be described thus: AP-ligand conditioned medium on transfected COS 7 cells, in situ AP staining.

Assay [4] addresses T4, murine BR3 expressed on transfected COS 7 cells (murine, UniProt Q9D8D0 1-175).
T4 construct: also called mBR3
T4 sequence: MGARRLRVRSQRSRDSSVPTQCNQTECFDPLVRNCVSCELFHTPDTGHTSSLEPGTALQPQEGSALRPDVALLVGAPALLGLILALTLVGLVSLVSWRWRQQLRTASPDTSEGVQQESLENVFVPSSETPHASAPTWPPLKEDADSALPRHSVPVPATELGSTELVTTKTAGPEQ
Described as above.

The target in assay [5] is T5, human BR3 expressed on transfected COS 7 cells (human, UniProt Q96RJ3 1-184).
T5 construct: also called hBR3
T5 sequence: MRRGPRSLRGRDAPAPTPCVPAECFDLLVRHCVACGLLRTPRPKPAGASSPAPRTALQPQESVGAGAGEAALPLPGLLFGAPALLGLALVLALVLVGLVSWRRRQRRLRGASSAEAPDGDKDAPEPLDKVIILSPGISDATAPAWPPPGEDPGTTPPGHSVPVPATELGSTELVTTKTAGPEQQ
Nature of the assay: figure legend: AP-ligand conditioned medium on transfected COS 7 cells, in situ AP staining. The protocol: (a) COS 7 transfected with hBR3 (1,2) or TACI (3,4) were incubated with conditioned medium containing AP-TALL-1 (1,3) or AP-April (2,4). Cells were washed, fixed, and stained for the AP activity in situ. (b) COS7 cells transfected with TALL-1 (1,2) or April (3,4) were incubated with hBR3-hFc (1,3) or TACI-hFc (2,4). Cells were washed, fixed, and bound receptor-hFc protein was detected using a biotinylated goat anti-human antibody followed by Cy3-streptavidin. (c) BR3-hFc (1,2) or TACI-hFc (3,4) was incubated with Flag-TALL-1 (1,3) or Flag-April (2,4). The receptor-Fc fusion proteins precipitated with protein-A-agarose were subjected to immunoblotting with anti-Flag antibody. Equivalent amounts of ligand (middle panel) or receptor-hFc (bottom) were used in the binding experiment. (d) 293E cells (Invitrogen) were transfected with 0.25 ug of a NF-kB luciferase reporter gene construct, 25 ng pRL-TK, and indicated amounts of expression constructs encoding hBR3, mBR3, TACI and BCMA. NF-kB activation was determined 20-24 hours later using the Dual-Luciferase reporter assay kit (Promega).

In another assay the target is T6, AP-TALL-1 (human, UniProt Q9Y275 136-285).
T6 construct: Used as conditioned medium of transfected 293 cells; AP is at the N-terminus of TALL-1; Flag precedes AP (as described for AP-APRIL); not shown: human placental alkaline phosphatase (AP), amplified from pAPtag-5
Nature of the assay: AP-TALL-1 binding to transfected cells.

T6 sequence (Q9Y275 136-285): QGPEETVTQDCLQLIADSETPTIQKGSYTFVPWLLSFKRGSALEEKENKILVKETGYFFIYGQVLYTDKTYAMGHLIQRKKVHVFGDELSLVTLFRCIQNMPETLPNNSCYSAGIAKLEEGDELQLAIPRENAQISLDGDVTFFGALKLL

B1: Murine BR3-Fc (Fc fusion)
chain: MGARRLRVRSQRSRDSSVPTQCNQTECFDPLVRNCVSCELFHTPDTGHTSSLEPGTALQPQEGSALRPDVA
notes: Only 'prepared as described above' is said; also called mBR3-hFc; not shown: human IgG1 Fc region
Turning to B1, the binding result in assay [1] is listed as “no binding”.

B2: AP-APRIL (ligand)
chain: AVLTQKQKKQHSVLHLVPINATSKDDSDVTEVMWQPALRRGRGLQAQGYGVRIQDAGVYLLYSQVLFQDVTFTMGQVVSREGQGRQETLFRCIRSMPSHPDRAYNSCYSAGVFHLHQGDILSVIIPRARAKLNLSPHGTFLGFVKL
notes: APRIL fused C-terminally to AP, AP fused C-terminally to Flag; not shown: human placental alkaline phosphatase (AP)
In the case of B2, the binding result in assay [2] is given as “binds”; in assay [3] it was “binds”; in assay [4], “no binding”; in assay [5], “no binding”.

B3: BCMA expressed on transfected cells (receptor)
chain: MLQMAGQCSQNEYFDSLLHACIPCQLRCSSNTPPLTCQRYCNASVTNSVKGTNAILWTCLGLSLIISLAVFVLMFLLRKISSEPLKDEFKNTGSGLLGMANIDLEKSRTGDEIILPRGLEYTVEECTCEDCIKSKPKVDSDHCFPLPAMEEGATILVTTKTNDYCKSLPAALSATEIEKSISAR
notes: The expression construct is only called 'BCMA'; also called BCMA-transfected cells
Consider B3, for which the binding result with AP-TALL-1 is “binds”.

The record behind these values is US20050070689A1 (Genentech, published 2005).
